Assay results: US20250269025A1 (AVENCELL THERAPEUTICS, published 2025)
No end group written: not given here.

Key:
[1] = target: T1, CD123 on CD123 positive AML cells (Oci-AML3, Molm-13, MV4-11, primary AML cells) (human, UniProt P26951 19-378); test: cellular binding assay per table caption, Molm-13 cells
T1 construct: whole, on cells; Endogenous CD123 on human AML cell lines; also called target antigen CD123

[2] = target: T1, CD123 on CD123 positive AML cells …; test: cellular binding assay per table caption, Oci-AML3 cells
[3] = target: T2, La epitope 5B9 (SEQ ID No. 28) fused to human Fc domain (human, also: fused to human Fc domain, order, isotype, linker not given here); test: SPR, Biacore X100, La epitope 5B9-human Fc on CM5 chip; KD 5B9 (second number of the cell)
T2 construct: Coupled to a CM5 sensor chip; not shown: human Fc domain
T2 chain: KPLPEVTDEY
Experimental: Furthermore, binding of different variants of the targeting module according to the invention was analyzed using the La epitope 5B9 (SEQ ID No. 28) fused to human Fc domain which was coupled to a CM5 sensor chip on a Biacore X100 device (FIG. 3). The targeting modules were purified monomers. The targeting modules were concentrated between 2.47 to 200 nM and measured in technical duplicates. For data fitting and KD calculation a two-state-reaction binding model was applied.

human CD123-Fc = target: T3, human CD123-Fc (human, UniProt P26951 19-305, limits assumed); test: SPR, Biacore X100, human CD123-Fc on CM5 chip, 1:1 model; KD CD123 (first number of the cell)
T3 construct: Coupled to a CM5 sensor chip; also called soluble recombinant CD123; not shown: Fc part
T3 sequence (looked up): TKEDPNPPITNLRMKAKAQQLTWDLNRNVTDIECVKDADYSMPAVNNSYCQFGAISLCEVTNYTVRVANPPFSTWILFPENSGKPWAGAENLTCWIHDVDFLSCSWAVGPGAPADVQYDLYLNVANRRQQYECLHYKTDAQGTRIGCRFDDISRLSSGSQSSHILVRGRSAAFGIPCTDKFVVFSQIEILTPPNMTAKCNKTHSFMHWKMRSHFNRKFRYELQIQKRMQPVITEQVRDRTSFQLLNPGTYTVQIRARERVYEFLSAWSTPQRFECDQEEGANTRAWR
Experimental: Binding of different variants of the targeting module according to the invention was analyzed by SPR measurements using human CD123-Fc coupled to a CM5 sensor chip on a Biacore X100 device (FIG. 2). Targeting modules were purified monomer except for the targeting module according to SEQ ID No. 8. […] For data fitting and KD calculation a 1:1 binding model was applied.

[4] = target: T1, CD123 on CD123 positive AML cells …; test: flow cytometry on Molm-13 cells, anti-His-PE detection. Half-maximal binding from a four-parameter fit of gMFI. Unit taken from the concentration axis [M]
Experimental: Cellular binding of CD123-binding targeting modules (TM) was tested on CD123 positive target cell lines Oci-AML3 and Molm-13: A) SEQ ID No. 5 to Oci-AML3, B) SEQ ID No. 9 to Oci-AML3, C) SEQ ID No. 4 to Molm-13 and D) SEQ ID No. 6 to Molm-13. The affinity of TMs was analyzed by flow cytometry. The TMs were titrated on an AML cell lines and then detected by a mouse anti-His-tag antibody conjugated to phycoerythrin.
Different concentrations of R-TM123 were incubated with cells, washed and quantified. A dose-response curve was obtained when the geometric mean fluorescence (MFI) was plotted against the TM concentration.

EC50 [1]: 0.0017 nM
EC50 [2]: 0.0062 nM
Kd [3]: 2.1 nM
Kd (human CD123-Fc): 0.044 nM
Kd [4]: 7.69 nM
B1: targeting module according to SEQ ID No. 6 (bispecific antibody)
chain: EVQLQQSGPELVKPGASVKMSCKASGYTFTDYYMKWVKQSHGKSLEWIGDIIPSNGATFYNQKFKGKATLTVDRSSSTAYMHLNSLTSEDSAVYYCTRSHLLRASWFAYWGQGTLVTVSAASGGGGSGGGGSGGGGSDFVMTQSPSSLTVTAGEKVTMSCKSSQSLLNSGNQKNYLTWYLQKPGQPPKLLIYWASTRESGVPDRFTGSGSGTDFTLTISSVQAEDLAVYYCQNDYSYPYTFGGGTKLEIKAAARGDIVMTQSPDSLAVSLGERVTMNCKSSQSLLNSRTPKNYLAWYQQKPGQSPKLLIYWASTRKSGVPDRFSGSGSGTDFTLTISSVQAEDVAVYYCKQSYNLLTFGGGTKLEIKGGGGSGGGGSGASAAGGGGSGGGGSQVQLVESGAEVVKPGASVKLSCKASGYAFTHYYIYWIKQAPGQGLEWIGGVNPSNGGTHFNEKFKSRATLTVDTSISTAYMELSRLRSDDTAVYYCTRSEYDYGLGFAYWGQGTLVTVSSGGGGSHHHHHHHH
notes: also called muCD123 + rs5B9-VL-VH
